Experimental data published in the DeepSol protein solubility set.

assay: soluble on expression in E. coli; label from the status in PepcDB or PDB records

Row | Sequence | soluble on expression in E. coli
1 | MSLSIFTDLNTSRKWQIDQWLSAVNSHIEKIQQYGHSVVNPTPLLADGFEIKTQSPVVWQFPDGHDAPISNFASQQNWLRLLISMSVITETEKYRHLAFCQSEYFLNRFVDENSGLFYWGGHRFINLDTLASEGPESKSMVHELKHHLPYYEFLHQVNPEKTRHFIQGFWNAHVEDWSCLDLGRHGDYARQRDPDVFLHSRHDVVTPANWPELPLTKGLTFVNAGTDLIYAAFVYARHTGDAHAAAWGKHLYRQYVLARNPETGMPVYQFSSPLQRQPVPADDNQTQSWFGDRAQRQFGPEFGAIAREANVLFRDMRPLLIDNPLAMLDILRHQPDAEILTWVIAGLKNYYQYAYDVNSNSLRPMWNNGQDMTDYCFKRDGYYGKAGTVLKPFPLEGDYLLPLVRAWLLSDDDDLHTLIVTMLSRLEKQGIHQSASPFLLLAITELAHAKQSAQWAEYAWQMAEILFKRYFHHGLFVRSEHHRYVRLDDPFPAILLTLIAACRNKWSEVPAVLTQGGYIHGDYRINGESRVIYDTGIYLPRKINEGHHHHHH | not soluble
2 | MSLSKIFVTGATGLIGIKLVQRLKEEGHEVAGFTTSENGQQKLAAINVKAYIGDILKADTIDQALADFKPEIIINQITDLKNVDMAANTKVRIEGSKNLIDAAKKHDVKKVIAQSIAFMYEPGEGLANEETSLDFNSTGDRKVTVDGVVGLEEETARMDEYVVLRFGWLYGPGTWYGKDGMIYNQFMDGQVTLSDGVTSFVHLDDAVETSIQAIHFENGIYNVADDAPVKGSEFAEWYKEQLGVEPNIDIQPAQPFERGVSNEKFKAQGGTLIYKTWKDGMNPIKEGHHHHHH | soluble
3 | MSLSKVRISSKIEDCEEIINQYGGNYLSHLIYSGDKQFFTNENKTAFLMYRYKASSLVVLGDPLGDENAFDELLEAFYNYAEYLGYDVIFYQVTDQHMPLYHNFGNQFFKLGEEAIIDLTQFSTSGKKRRGFRATLNKFDELNISFEIIEPPFSTEFINELQHVSDLWLDNRQEMHFSVGEFNEEYLSKAPIGVMRNEENEVIAFCSLMPTYFNDAISVDLIRWLPELDLPLMDGLYLHMLLWSKEQGYTKFNMGMATLSNVGQLHYSYLRERLAGRVFEHFNGLYRFQGLRRYKSKYNPNWEPRFLVYRKDNSLWESLSKVMRVIRHKEGHHHHHH | soluble
4 | MSLSLEEALLFREATVTDLKSIMNVENAAFTVPWTEAAFRNEFIINQYAYYLLAIYKEQVVGYAGVWLVLDEGHITNIAIHPDYQGNHYGEALLREMIRVAKERGVVRMTLEVRVSNDVAQGLYKKLGFQDGAIRKNYYPDTKEDALVMWVDLEGHHHHHH | soluble
5 | MSLSLESLEWMAFDSFLLWRSEESIDARILLVEINQNDNYSLTSTISNSSFIGVIEKLQVYQPKVIGLEVDQHLLINSQEDKLAKIFQKYKNLIANEKILPLQVHSYLDLPNEQITFADQILDNDGKSRRSLLAINTSNGYKLSLAMELARIYLAEKNISLENSRLGKTKLPRFLPNSGGYIRADASGFQVLINFRSGNQRFRTLSGEDIKNGKFNPEWIRDRIVIIGITNTHNQGFIPTSAITSVKSASTQVNKLEIQAHAISQIISAVLDGRPLINTWNDGEGHHHHHH | not soluble
6 | MSLSLLVIGSLAFDDIETPFGRSDNTLGGSSTYIALSASYFTDEPIRMVGVVGSDFGKEHFDLLHAKNIDTRGIQVIEDGKTFRWAGRYHYDMNTRDTLDTQLNVFAEFDPHVPQYYRDSKFVCLGNIDPELQLKVLDQIDDPKLVVCDTMNFWIEGKPEELKKVLARVDVFIVNDSEARLLSGDPNLVKTARIIREMGPKTLIIKKGEHGALLFTDNGIFAAPAFPLESIYDPTGAGDTFAGGFIGHLARCGNTSEAEMRKAVLYGSAMASFCVEQFGPYRYNDLDLLEVDDRYQSFLELSRIEEGHHHHHH | soluble
7 | MSLSMLPSFGFTQEQVACVCEVLQQGGNLERLGRFLWSLPACDHLHKNESVLKAKAVVAFHRGNFRELYKILESHQFSPHNHPKMQQLWLKAHYVEAEKLRGRPLGAVGKYRVRRKFPLPRTIWDGEETSYCFKEKSRGVLREWYAHNPYPSPREKRELAEATGMTTTQVSNWFKNRRQRDRAAEAKERENTENEGHHHHHH | not soluble
8 | MSLSNLINGKIPNQAIQTLKIVKDLFGSSIVGVYLFGSAVNGGLRINSDVDVLVVVNHSLPQLTRKKLTERLMTISGKIGNTDSVRPLEVTVINRSEVVPWQYPPKREFIYGEWLRGEFENGQIQEPSYDPDLAIVLAQARKNSISLFGPDSSSILVSVPLTDIRRAIKDSLPELIEGIKGDERNVILTLARMWQTVTTGEITSKDVAAEWAIPLLPKEHVTLLDIARKGYRGECDDKWEGLYSKVKALVKYMKNSIETSLNEGHHHHHH | soluble
9 | MSLSNLTSQLHNFFSAQLAGVSDEVRVSIRTAPNLLPPCEQPLLSMSNNSRLWGNVNVLARCGNDKRYLQVNVQATGNYVVAAMPIARGGKLEAGNVKLKRGRLDTLPPRTVLDINQLVDAISLRDLSPDQPIQLTQFRQAWRVKAGQRVNVIASGDGFSANAEGQALNNAAVAQNARVRMVSGQVVSGVVDADGNILINLEGHHHHHH | soluble
10 | MSLSNMTQQTRTQQARETMKRVYRYQAANQTRSVIRRSGKTRFIKDTDWERGVFWSCVAAAWLATDDAEYLEGVMNYTLHTGFRPGPNLRFADDLICCQAYLDVWPQIAVPEALEPTIKAVSAMVDEPKPGREDWWWCDSLFMAPATFAALSQRTGDARYLAYMDTAFWDAVDYLRDPDSGLFYRDHRYIPDGNGTELREENGEKVFWSRGIGWVLAAIPRLLARMPEDYTGRQRYLDLFTDLADKVIRYQQADGLWRTSLLDPQRFPAPESSATALFCYGLSWGINQGILAPETYLPVVEKAWDALQGCIHDNGMMGWVQLPAFNPRDVKFEHNMDYGAGAYLLAASEMLRLAEGHHHHHH | soluble
11 | MSLSNTSASFGFKDVDASLKAGLVRGVFDRVAKNYDIMNDLMSGGVHRLWKDAVAARLNPQPGEVIIDCAGGTGDMARRFAKMARKAQERRGGPDATINIVDYNAEMIMAGIERGGEPEITWTVGDAQRLPLPDAYADAYVISFGIRNVTDINAALREARRVLKPGGRFLCLEFSRPVTEPLAKAYDAYSFKVIPQVGEWVAKDRDAYQYLVESIRRFPDQRTFAGMIEAAGFKRVTFTNFTGGVAALHQGWAIEGHHHHHH | not soluble
12 | MSLSPAGGPDLAALAASSTSIDLPYLLAGVENENELDLYVVPSGKPVAVRAATFDSERQVYSLALDNPQRILTWTPASAPGGDEGNSTSLPLVPPGTVVYTGSSLNPVVTEQEGYPALDLLDQERLIITFPMDSGLPPILVVFKSPRYEAGTSTGHGLEHHHHHH | soluble
13 | MSLSPARAQEEISRLQQQIKQWDDDYWKEGKSEVEDGVYDQLSARLTQWQRCFGSEPRDVMMPPLNGAVMHPVAHTGVRKMVDKNALSLWMRERSDLWVQPKVDGVAVTLVYRDGKLNKAISRGNGLKGEDWTQKVSLISAVPQTVSGPLANSTLQGEIFLQREGHIQQQMGGINARAKVAGLMMRQDDSDTLNSLGVFVWAWPDGPQLMSDRLKELATAGFTLTQTYTRAVKNADEVARVRNEWWKAELPFVTDGVVVRAAKEPESRHWLPGQAEWLVAWKYQPVAQVAEVKAIQFAVGKSGKISVVASLAPVMLDDKKVQRVNIGSVRRWQEWDIAPGDQILVSLAGQGIPRIDDVVWRGAERTKPTPPENRFNSLTCYFASDVCQEQFISRLVWLGAKQVLGLDGIGEAGWRALHQTHRFEHIFSWLLLTPEQLQNTPGIAKSKSAQLWHQFNLARKQPFTRWVMAMGIPLTRAALNASDERSWSQLLFSTEQFWQQLPGTGSGRARQVIEWKENAQIKKLGSWLAAQQITGFEEGHHHHHH | soluble
14 | MSLSQERFRVKYQIFEESKRAKEIAEAICVEQTIEFPIELTGNSIRENVVGKIEEIQNNHNSTVVTISYPVETVGNEPAQFFNVIMGNCSLFPNLKIIGLQLSPSIENIFPGPRYGISGLRKLLSIYNRPLLATAIKPMGLSTDQLAQMAYNLALGGVDIIKDDHGLADQPFSKFKDRVLKVTEAIHKANRETGFHTIYAPNITSNEQTMLKQAEFVKEAGSGALLVSPALSGFSSFITLRENTDLPILSHPAFLGGYLSIMDFDVLFGTIQRMIGADVVIFPNYGGRFTFSKEDCRKINHGLKKPFGSFKEIFPSPAGGMNIDSCGDIVSFYNKDVVLLIGGALHKAGADLTENVKAFKAQVEKIHVREGHHHHHH | soluble
15 | MSLSQLREIQQQFMDYLLASAAQTPIPETIEKPFSDKVAEQGGVGRDIRMQIYANAYRIRLTEVLDTDHEILGLYLGDDLFARMANGYIAHQPSRFTSLRQFADALPGYLASDAFFSQYPIISDIARFERRLLNAFDAKDEQRASFAALQSLPADAWPYCQLRFHPSVQLFECASNAVETWQALKHQQVPPAPDYQGKHAWLLWRGENRLTEFISLAEYQLALIQGFIHGANIAEQCELMLNFFTPEEAMQQLLQALQAWFQLGLILSVQPNEGHHHHHH | not soluble
16 | MSLSRFYHNLKFRSIPTTCATAQMCADRDEMQDSLICIPHFAAPEHYLFAGIDGHSGKYVSYKFSIRFPEIFYEMLSRDSGALNIIDALYQSFDTIQNEFANDPNVTDGAVATVIFMTPTKIYTAQCGDCRAVYITSSGVVQLAPEHKTSDRIEQMRIRSQGGFVSENLRVCGLLVARSVGDVKNKPIITHVPDITCFDRRDDEEYLVVATDGVWDEISNLKIHDILHSNRRVYRTSELSGLVKDIACVSCISGQHPDNIGIVLCRFEGHHHHHH | soluble
17 | MSLSSERVLSNARVVSAERVFVGSVLLRDGLIAAVDEGRSHLAGAEDLGGDYLLPGLVELHTDNLEKHMTPRPGVDWPSASAVLAHDAQIVSAGITTVFDALSIGDVNPKGKRMQQLPKMLEAIGEAAASGDARADHRLHLRCEVSHPQTLEVFRELVEHPLVQLVSVMDHAPGQRQFARLEKYREYYQGKYHLSDAEMDAFIVEQVANSERYSDAARAAIVDVCQGRGLSVASHDDATLAHVRESAGYGMAIAEFPTTVEAARASHEHGLQVLMGAPNVVRGGSHSGNVAAAQLAGIGVLDILSSDYYPASLLHAALLLAGEHSEYDAIRYDLPRAVAMVSRTPALAAGLTDRGEIRVGLRADLLQARALGNNQPVVRQVWRGGQRVFEGHHHHHH | soluble
18 | MSLSTVISSEASNYDHWAWLYNHTLGPRYSEQKIAPLARAVLSQLPNGASVLDLCCGTGHLAKLMADRGYAVTGLDGSQDMINHARGNAPDLEFVLGDARDFTFEQPFDGVVCTSASLNHIQNTEDLRKVFSSVRRCLKDEGIFAFDINHPGQMARYWRDVPAEGELTDDYAWLITPRYNSQSNEGSFTVEIHTRPKAARFSLAEAAYRLAARLLSNRRRLALIARFGIPGNNWERHSVTNPVWGHDLDTVTELLRASGFSVKMRSTDGGPVTDERAVYFLCTKIAGDRAGQEVTKEAVEEGHHHHHH | soluble
19 | MSLSWIYDAHIHLSDPEYKSDMNMILNYMDLLKIKACCVSMDLETSNETMSLYEKSKNILPFIGIHPEMAQKESKPVYDLIEKNNEIISGVGEIGLDRTYIDTEDEWNVQKEVFSKQLSLAEKFNKPVSIHSRKTLSDIFEILPSYKIPGILLHWFDGNKSQLRTAMDNEYFVSYGPLLIYAHDKQTLLTKTDPNRLLVETDGPVKFSRCFEYKTTEIMFVSSVIFCASKLLHMPYEKLLEQIEGNSKRFLGIEGHHHHHH | soluble
